Measured values taken from patent publication US20120021923.

## prostate-specific antigen (PSA)
SKLQ-aluc
  turnover rate by PSA: SKLQ on the other had appears to have a very slow turnover compared to KGISSQY and to be highly specific to PSA
Ac-KGISSQY-AFC
  Km (PSA-A buffer): the Km value is estimated to be 1.73 mM
  Km (PSA-B buffer): the Km value is estimated to be 0.47 mM
  Vmax (PSA-A buffer): the Vmax is estimated to be 3.7 RLU/sec
  Vmax (PSA-B buffer): the Vmax is estimated to be 2.33 RLU/sec
  turnover rate by PSA: the substrate of KGISSQY has a much higher turnover rate by PSA as compared to SKLQ
